Columns and labels:
Experiment in all cases: flow cytometry on cells; T cells stably expressing the IL13-based CARs titrated with recombinant biotinylated receptor (IL13Rα1-Fc, IL13Rα2-Fc or mouse IL13Rα1); dose-response curves, three independent trials
[1] = target: IL13 E12Y CAR (IL13 E12Y - IgG4(EQ)-Fc linker - CD28 transmembrane and costimulatory domain - CD3ζ) on T cells
[2] = target: IL13 WT CAR (IL13 - IgG4(EQ)-Fc linker - CD28 transmembrane and costimulatory domain - CD3ζ) on T cells
[3] = target: IL13 C4 CAR (IL13 C4 - IgG4(EQ)-Fc linker - CD28 transmembrane and costimulatory domain - CD3ζ) on T cells
[4] = target: IL13 D7 CAR (IL13 D7 - IgG4(EQ)-Fc linker - CD28 transmembrane and costimulatory domain - CD3ζ) on T cells

B1: Recombinant human IL13Rα1-Fc chimera (Fc fusion)
chain: GGGGAAPTETQPPVTNLSVSVENLCTVIWTWNPPEGASSNCSLWYFSHFGDKQDKKIAPETRRSIEVPLNERICLQVGSQCSTNESEKPSILVEKCISPPEGDPESAVTELQCIWHNLSYMKCSWLPGRNTSPDTNYTLYYWHRSLEKIHQCENIFREGQYFGCSFDLTKVKDSSFEQHSVQIMVKDNAGKIKPSFNIVPLTSRVKPDPPHIKNLSFHNDDLYVQWENPQNFISRCLFYEVEVNNSQTETHNVFYVQEAKCENPEFERNVENTSCFMVPGVLPDTLNTVRIRVKTNKLCYEDDKLWSNWSQEMSIGKKRNST
modifications: biotin (in the titration of CAR T cells)
[1]
  Kd: 34 nM
[2]
  Kd: 34 nM

B2: Recombinant human IL13Rα2-Fc chimera (Fc fusion)
chain: DTEIKVNPPQDFEIVDPGYLGYLYLQWQPPLSLDHFKECTVEYELKYRNIGSETWKTIITKNLHYKDGFDLNKGIEAKIHTLLPWQCTNGSEVQSSWAETTYWISPQGIPETKVQDMDCVYYNWQYLLCSWKPGIGVLLDTNYNLFYWYEGLDHALQCVDYIKADGQNIGCRFPYLEASDYKDFYICVNGSSENKPIRSSYFTFQLQNIVKPLPPVYLTFTRESSCEIKLKWSIPLGPIPARCFDYEIEIREDDTTLVTATVENETYTLKTTNETRQLCFVVRSKVNIYCSDDGIWSEWSDKQCWEGEDLSKKTLLR
modifications: biotin (in the titration of CAR T cells)
[3]
  Kd: 29 nM
[4]
  Kd: 4.2 nM
[1]
  Kd: 1.8 nM
[2]
  Kd: 1.7 nM

— article PMC9388138
